# Results published in patent US6815187.
# Tested on: syndecan-4 cytoplasmic tail peptide with a phosphorylated Ser (S4c-P)
substance,measurement,value
Recombinant PKCα,"phosphorylation level of the PKCβ1 optimal substrate peptide by PKCα, in the presence of PIP2",the phosphorylation level of the substrate was similar to that obtained with PIP2 alone
